Reference: US20140017221

T1: Flag-tagged SOD2
T1 sequence: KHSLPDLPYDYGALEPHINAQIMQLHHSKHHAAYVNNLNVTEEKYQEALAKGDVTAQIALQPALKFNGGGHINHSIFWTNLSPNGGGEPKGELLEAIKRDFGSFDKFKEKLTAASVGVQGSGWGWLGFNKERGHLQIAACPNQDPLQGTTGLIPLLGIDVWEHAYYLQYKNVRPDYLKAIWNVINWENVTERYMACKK

T2: Long-chain acyl CoA dehydrogenase (endogenous, mouse liver), P51174
T2 chain: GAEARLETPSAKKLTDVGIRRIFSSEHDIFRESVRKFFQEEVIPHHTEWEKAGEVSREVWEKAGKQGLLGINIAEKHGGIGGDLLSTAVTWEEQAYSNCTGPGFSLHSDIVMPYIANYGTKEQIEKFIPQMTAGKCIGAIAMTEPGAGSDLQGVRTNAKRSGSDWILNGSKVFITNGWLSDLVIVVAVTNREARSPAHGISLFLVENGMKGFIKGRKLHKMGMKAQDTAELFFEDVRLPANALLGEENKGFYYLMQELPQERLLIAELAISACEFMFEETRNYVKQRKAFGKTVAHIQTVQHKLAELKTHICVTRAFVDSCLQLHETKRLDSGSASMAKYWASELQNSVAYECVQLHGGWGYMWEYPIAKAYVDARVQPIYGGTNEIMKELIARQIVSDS

B1: SIRT3 (endogenous, mouse tissue) (protein)
chain: PISLCVGASGGFGGGGSSEKKFSLQDVAELLRTRACSRVVVMVGAGISTPSGIPDFRSPGSGLYSNLQQYDIPYPEAIFELGFFFHNPKPFFMLAKELYPGHYRPNVTHYFLRLLHDKELLLRLYTQNIDGLERASGIPASKLVEAHGTFVTATCTVCRRSFPGEDIWADVMADRVPRCPVCTGVVKPDIVFFGEQLPARFLLHMADFALADLLLILGTSLEVEPFASLSEAVQKSVPRLLINRDLVGPFVLSPRRKDVVQLGDVVHGVERLVDLLGWTQELLDLMQRERGKLDGQDR

Columns and labels:
[1] = tested on: Flag-tagged SOD2 mutant of K122
[2] = tested on: Flag-tagged SOD2 mutant of K68
Flag-tagged SOD2 = tested on: T1, Flag-tagged SOD2
[3] = tested on: Flag-tagged SOD2 mutant of K130
[4] = molecular target: T2, Long-chain acyl CoA dehydrogenase …

| Molecule | acetylation levels of immunopurified SOD2 mutant (Flag-tagged SOD2 K53/89R) | enzymatic activity of immunopurified SOD2 K53/89R (superoxide conversion, colorimetric) (Flag-tagged SOD2 K53/89R) | acetylation status of immunopurified SOD2 mutant [1] | acetylation status of immunopurified SOD2 mutant [2] | acetylation levels for SOD2 after immunoprecipitation, western blotting with anti-acetyllysine antibody (Flag-tagged SOD2) | enzymatic activity of immunopurified SOD2 (superoxide conversion, colorimetric) (Flag-tagged SOD2) | acetylation levels of immunopurified SOD2 mutant (Flag-tagged SOD2 K53R) | acetylation status of immunopurified SOD2 mutant [3] | acetylation levels of immunopurified SOD2 mutant (Flag-tagged SOD2 K89R) | enzymatic activity of LCAD in liver lysates (oxidation of palmitoyl-CoA) [4] |
| --- | --- | --- | --- | --- | --- | --- | --- | --- | --- | --- |
| SIRT3 (co-transfected expression construct) | SIRT3 co-expression further decreased acetylation levels of K53R and K89R, but not K53/89R | SIRT3 did not further increase its enzymatic activity | SIRT3 co-expression reduced acetylation levels of these three SOD2 mutants | SIRT3 co-expression reduced acetylation levels of these three SOD2 mutants | SIRT3, but not SIRT3-H248Y, deacetylated SOD2 | Overexpression of WT SIRT3 decreased the acetylation of SOD2 (FIG. 3D, E, G) and significantly increased its enzymatic activity | SIRT3 co-expression further decreased acetylation levels of K53R and K89R, but not K53/89R | SIRT3 co-expression reduced acetylation levels of these three SOD2 mutants | SIRT3 co-expression further decreased acetylation levels of K53R and K89R, but not K53/89R | – |
| SIRT3-H248Y | – | – | – | – | SIRT3, but not SIRT3-H248Y, deacetylated SOD2 | overexpression of SIRT3-H248Y had the opposite effect | – | – | – | – |
| B1 | – | – | – | – | – | – | – | – | – | we observed a 50% increase in enzymatic activity of LCAD in WT but not SIRT3 KO mice during CR |
